Results reported in publication PMC4456216 (Nature structural & molecular biology, 2015).

B1: BMAL2 transactivation domain (TAD), residues 540-579 (domain or fragment, mouse, UniProt Q2VPD4 540-579, looked up)
chain: LGFDVLCDSDSIDMAAFMNYLEAEGGLGDPGDFSDIQWAL

How the values were obtained:
[1] = target: p300 KIX domain (residues 565-653) (mouse, UniProt B2RWS6 565-653); experiment: NMR titration
[2] = target: B1; experiment: ITC

p300 KIX domain (residues 565-653), sequence (B2RWS6 565-653): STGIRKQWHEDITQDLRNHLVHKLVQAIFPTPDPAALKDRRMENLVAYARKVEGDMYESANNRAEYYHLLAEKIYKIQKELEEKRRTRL

| Binder | binding result [1] | stoichiometry N [2] |
| --- | --- | --- |
| B1 | binds | – |
| MVNHAEASRLNIERMKQIYQQLSRYRGLGLLASV [mouse CRY1 CC peptide (residues 470-503)] | – | 0.7 |
| mouse CBP KIX domain (domain or fragment) not shown | – | 0.7 |
